These are literature values, as cited in PMC5326574.

As a reminder, the Kd is the concentration at which binding is half-saturated.

In data set [1] the target is Prolactin (second site) (Homo sapiens) (UniProt P01236).
The target in data set [2] is Prolactin (Homo sapiens) (UniProt P01236). Description: SPR. On the technique in general: Surface plasmon resonance follows binding to a sensor surface in real time, without labels.
The target in data set [3] is ERK2 (Homo sapiens) (UniProt P28482). Put plainly: NMR.
UniProt P28482, sequence (P28482 2-360): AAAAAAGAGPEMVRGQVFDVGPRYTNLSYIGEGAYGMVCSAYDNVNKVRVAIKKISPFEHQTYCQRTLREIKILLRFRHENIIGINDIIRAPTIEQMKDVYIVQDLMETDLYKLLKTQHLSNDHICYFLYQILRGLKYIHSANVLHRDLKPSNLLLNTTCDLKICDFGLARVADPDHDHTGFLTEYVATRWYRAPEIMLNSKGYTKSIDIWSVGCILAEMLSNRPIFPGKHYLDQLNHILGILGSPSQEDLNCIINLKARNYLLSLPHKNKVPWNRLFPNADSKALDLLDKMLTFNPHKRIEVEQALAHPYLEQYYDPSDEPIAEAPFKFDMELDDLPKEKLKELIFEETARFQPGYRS

For the substance “Prolactin receptor ECD (from UniProt P16471)”, the Kd was 33 µM in data set [1] and 0.006 µM in data set [2].
For “NHE1 C-terminal distal tail (NHE1cdt) (from UniProt P19634)”, the Kd in data set [3] is 30 µM.
